Results: the supplement of paper PMC5998384

Tests used:
[1] = system: HeLa Kyoto; assay: solubility change mitosis vs G1/S (difference of NP-40 vs SDS log2 ratios) (log2 ratio difference); higher = more soluble in mitosis
[2] = system: HeLa Kyoto; assay: melting temperature (median over replicates), in situ; higher = more thermally stable
[3] = system: HeLa Kyoto; assay: solubility in G1/S (NP-40 vs SDS abundance) (log2 ratio); higher = more soluble; details: cell cycle stage: G1/S
[4] = system: HeLa Kyoto; assay: thermal stability score vs G1/S (z-score of summed log2 fold changes over temperatures); higher = more thermally stable than in G1/S
[5] = cell cycle stage: early G1 (4.5 h after nocodazole release)
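Throughout, for melting temperature (median over replicates), in situ: HeLa Kyoto cells synchronized by double thymidine or nocodazole block, proteins quantified by TMT10plex mass spectrometry, three independent biological replicates.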
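Throughout, for solubility change mitosis vs G1/S (difference of NP-40 vs SDS log2 ratios): synchronized HeLa Kyoto cells (double thymidine block for G1/S, nocodazole release for mitosis), protein amounts in NP-40 versus SDS lysates quantified by mass spectrometry, three biological replicates.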
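Throughout, for solubility in G1/S (NP-40 vs SDS abundance): HeLa Kyoto cells arrested at G1/S by double thymidine block, proteins quantified by TMT10plex mass spectrometry in mild NP-40 versus SDS extracts, three biological replicates.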
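Throughout, for thermal stability score vs G1/S (z-score of summed log2 fold changes over temperatures): synchronized HeLa Kyoto cells, proteins quantified by TMT10plex mass spectrometry, three biological replicates, mitosis taken 0.5 h after nocodazole release, G1/S directly after double thymidine block.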

| Sequence | solubility change mitosis (log2) [1] | melting temperature ([2]; cell cycle stage: G1/S) [°C] | melting temperature ([2]; cell cycle stage: mitosis) [°C] | solubility in G1/S (log2) [3] | thermal stability score [4, 5] | thermal stability score ([4]; cell cycle stage: mitosis) |
| --- | --- | --- | --- | --- | --- | --- |
| MPSALAIFTCRPNSHPFQERHVYLDEPIKIGRSVARCRPAQNNATFDCKVLSRNHALVWFDHKTGKFYLQDTKSSNGTFINSQRLSRGSEESPPCEILSGDIIQFGVDVTENTRKVTHGCIVSTIKLFLPDGMEARLRSDVIHAPLPSPVDKVAANTPSMYSQELFQLSQYLQEALHREQMLEQKLATLQRLLAITQEASDTSWQALIDEDRLLSRLEVMGNQLQACSKNQTEDSLRKELIALQEDKHNYETTAKESLRRVLQEKIEVVRKLSEVERSLSNTEDECTHLKEMNERTQEELRELANKYNGAVNEIKDLSDKLKVAEGKQEEIQQKGQAEKKELQHKIDEMEEKEQELQAKIEALQADNDFTNERLTALQVRLEHLQEKTLKECSSLEHLLSKSGGDCTFIHQFIECQKKLIVEGHLTKAVEETKLSKENQTRAKESDFSDTLSPSKEKSSDDTTDAQMDEQDLNEPLAKVSLLKDDLQGAQSEIEAKQEIQHLRKELIEAQELARTSKQKCFELQALLEEERKAYRNQVEESTKQIQVLQAQLQRLHIDTENLREEKDSEITSTRDELLSARDEILLLHQAAAKVASERDTDIASLQEELKKVRAELERWRKAASEYEKEITSLQNSFQLRCQQCEDQQREEATRLQGELEKLRKEWNALETECHSLKRENVLLSSELQRQEKELHNSQKQSLELTSDLSILQMSRKELENQVGSLKEQHLRDSADLKTLLSKAENQAKDVQKEYEKTQTVLSELKLKFEMTEQEKQSITDELKQCKNNLKLLREKGNNKPWPWMPMLAALVAVTAIVLYVPGLARASP [SLMAP] | 0.0117 | 50.6 | 51.2 | 0.152 | 0.404 | 0.436 |
| MPSKFSCRQLREAGQCFESFLVVRGLDMETDRERLRTIYNRDFKISFGTPAPGFSSMLYGMKIANLAYVTKTRVRFFRLDRWADVRFPEKRRMKLGSDISKHHKSLLAKIFYDRAEYLHGKHGVDVEVQGPHEARDGQLLIRLDLNRKEVLTLRLRNGGTQSVTLTHLFPLCRTPQFAFYNEDQELPCPLGPGECYELHVHCKTSFVGYFPATVLWELLGPGESGSEGAGTFYIARFLAAVAHSPLAAQLKPMTPFKRTRITGNPVVTNRIEEGERPDRAKGYDLELSMALGTYYPPPRLRQLLPMLLQGTSIFTAPKEIAEIKAQLETALKWRNYEVKLRLLLHLEELQMEHDIRHYDLESVPMTWDPVDQNPRLLTLEVPGVTESRPSVLRGDHLFALLSSETHQEDPITYKGFVHKVELDRVKLSFSMSLLSRFVDGLTFKVNFTFNRQPLRVQHRALELTGRWLLWPMLFPVAPRDVPLLPSDVKLKLYDRSLESNPEQLQAMRHIVTGTTRPAPYIIFGPPGTGKTVTLVEAIKQVVKHLPKAHILACAPSNSGADLLCQRLRVHLPSSIYRLLAPSRDIRMVPEDIKPCCNWDAKKGEYVFPAKKKLQEYRVLITTLITAGRLVSAQFPIDHFTHIFIDEAGHCMEPESLVAIAGLMEVKETGDPGGQLVLAGDPRQLGPVLRSPLTQKHGLGYSLLERLLTYNSLYKKGPDGYDPQFITKLLRNYRSHPTILDIPNQLYYEGELQACADVVDRERFCRWAGLPRQGFPIIFHGVMGKDEREGNSPSFFNPEEAATVTSYLKLLLAPSSKKGKARLSPRSVGVISPYRKQVEKIRYCITKLDRELRGLDDIKDLKVGSVEEFQGQERSVILISTVRSSQSFVQLDLDFNLGFLKNPKRFNVAVTRAKALLIIVGNPLLLGHDPDWKVFLEFCKENGGYTGCPFPAKLDLQQGQNLLQGLSKLSPSTSGPHSHDYLPQEREGEGGLSLQVEPEWRNEL [MOV10] | -0.141 | 52.9 | 51.1 | -0.355 | -0.801 | -2.06 |
| MPSKKKKYNARFPPARIKKIMQTDEEIGKVAAAVPVIISRALELFLESLLKKACQVTQSRNAKTMTTSHLKQCIELEQQFDFLKDLVASVPDMQGDGEDNHMDGDKGARRGRKPGSGGRKNGGMGTKSKDKKLSGTDSEQEDESEDTDTDGEEETSQPPPQASHPSAHFQSPPTPFLPFASTLPLPPAPPGPSAPDEEDEEDYDS [DRAP1] | 0.215 | 56.9 | 55.7 | 0.748 | -2.19 | -2.89 |
| MPSSLLGAAMPASTSAAALQEALENAGRLIDRQLQEDRMYPDLSELLMVSAPNNPTVSGMSDMDYPLQGPGLLSVPNLPEISSIRRVPLPPELVEQFGHMQCNCMMGVFPPISRAWLTIDSDIFMWNYEDGGDLAYFDGLSETILAVGLVKPKAGIFQPHVRHLLVLATPVDIVILGLSYANLQTGSGVLNDSLSGGMQLLPDPLYSLPTDNTYLLTITSTDNGRIFLAGKDGCLYEVAYQAEAGWFSQRCRKINHSKSSLSFLVPSLLQFTFSEDDPILQIAIDNSRNILYTRSEKGVIQVYDLGQDGQGMSRVASVSQNAIVSAAGNIARTIDRSVFKPIVQIAVIENSESLDCQLLAVTHAGVRLYFSTCPFRQPLARPNTLTLVHVRLPPGFSASSTVEKPSKVHRALYSKGILLMAASENEDNDILWCVNHDTFPFQKPMMETQMTAGVDGHSWALSAIDELKVDKIITPLNKDHIPITDSPVVVQQHMLPPKKFVLLSAQGSLMFHKLRPVDQLRHLLVSNVGGDGEEIERFFKLHQEDQACATCLILACSTAACDREVSAWATRAFFRYGGEAQMRFPTTLPPPSNVGPILGSPVYSSSPVPSGSPYPNPSFLGTPSHGIQPPAMSTPVCALGNPATQATNMSCVTGPEIVYSGKHNGICIYFSRIMGNIWDASLVVERIFKSGNREITAIESSVPCQLLESVLQELKGLQEFLDRNSQFAGGPLGNPNTTAKVQQRLIGFMRPENGNPQQMQQELQRKFHEAQLSEKISLQAIQQLVRKSYQALALWKLLCEHQFTIIVAELQKELQEQLKITTFKDLVIRDKELTGALIASLINCYIRDNAAVDGISLHLQDICPLLYSTDDAICSKANELLQRSRQVQNKTEKERMLRESLKEYQKISNQVDLSNVCAQYRQVRFYEGVVELSLTAAEKKDPQGLGLHFYKHGEPEEDIVGLQAFQERLNSYKCITDTLQELVNQSKAAPQSPSVPKKPGPPVLSSDPNMLSNEEAGHHFEQMLKLSQRSKDELFSIALYNWLIQVDLADKLLQVASPFLEPHLVRMAKVDQNRVRYMDLLWRYYEKNRSFSNAARVLSRLADMHSTEISLQQRLEYIARAILSAKSSTAISSIAADGEFLHELEEKMEVARIQLQIQETLQRQYSHHSSVQDAVSQLDSELMDITKLYGEFADPFKLAECKLAIIHCAGYSDPILVQTLWQDIIEKELSDSVTLSSSDRMHALSLKIVLLGKIYAGTPRFFPLDFIVQFLEQQVCTLNWDVGFVIQTMNEIGVPLPRLLEVYDQLFKSRDPFWNRMKKPLHLLDCIHVLLIRYVENPSQVLNCERRRFTNLCLDAVCGYLVELQSMSSSVAVQAITGNFKSLQAKLERLH [NUP155] | -0.126 | 50.6 | 48.8 | -0.247 | -2.62 | -3.4 |
| MPTESASCSTARQTKQKRKSHSLSIRRTNSSEQERTGLPRDMLEGQDSKLPSSVRSTLLELFGQIEREFENLYIENLELRREIDTLNERLAAEGQAIDGAELSKGQLKTKASHSTSQLSQKLKTTYKASTSKIVSSFKTTTSRAACQLVKEYIGHRDGIWDVSVAKTQPVVLGTASADHTALLWSIETGKCLVKYAGHVGSVNSIKFHPSEQLALTASGDQTAHIWRYAVQLPTPQPVADTSISGEDEVECSDKDEPDLDGDVSSDCPTIRVPLTSLKSHQGVVIASDWLVGGKQAVTASWDRTANLYDVETSELVHSLTGHDQELTHCCTHPTQRLVVTSSRDTTFRLWDFRDPSIHSVNVFQGHTDTVTSAVFTVGDNVVSGSDDRTVKVWDLKNMRSPIATIRTDSAINRINVCVGQKIIALPHDNRQVRLFDMSGVRLARLPRSSRQGHRRMVCCSAWSEDHPVCNLFTCGFDRQAIGWNINIPALLQEK [WDR37] | -0.117 | 53.3 |  | 0.0178 | -0.8 | -0.627 |
| MPTGFVAPILCVLLPSPTREAATVASATGDSASERESAAPAAAPTAEAPPPSVVTRPEPQALPSPAIRAPLPDLYPFGTMRGGGFGDRDRDRDRGGFGARGGGGLPPKKFGNPGERLRKKKWDLSELPKFEKNFYVEHPEVARLTPYEVDELRRKKEITVRGGDVCPKPVFAFHHANFPQYVMDVLMDQHFTEPTPIQCQGFPLALSGRDMVGIAQTGSGKTLAYLLPAIVHINHQPYLERGDGPICLVLAPTRELAQQVQQVADDYGKCSRLKSTCIYGGAPKGPQIRDLERGVEICIATPGRLIDFLESGKTNLRRCTYLVLDEADRMLDMGFEPQIRKIVDQIRPDRQTLMWSATWPKEVRQLAEDFLRDYTQINVGNLELSANHNILQIVDVCMESEKDHKLIQLMEEIMAEKENKTIIFVETKRRCDDLTRRMRRDGWPAMCIHGDKSQPERDWVLNEFRSGKAPILIATDVASRGLDVEDVKFVINYDYPNSSEDYVHRIGRTARSTNKGTAYTFFTPGNLKQARELIKVLEEANQAINPKLMQLVDHRGGGGGGGGRSRYRTTSSANNPNLMYQDECDRRLRGVKDGGRRDSASYRDRSETDRAGYANGSGYGSPNSAFGAQAGQYTYGQGTYGAAAYGTSSYTAQEYGAGTYGASSTTSTGRSSQSSSQQFSGIGRSGQQPQPLMSQQFAQPPGATNMIGYMGQTAYQYPPPPPPPPPSRK [DDX17] | 0.16 | 49.1 | 49.8 | -0.381 | 3.12 | 5.66 |
| MPTVSVKRDLLFQALGRTYTDEEFDELCFEFGLELDEITSEKEIISKEQGNVKAAGASDVVLYKIDVPANRYDLLCLEGLVRGLQVFKERIKAPVYKRVMPDGKIQKLIITEETAKIRPFAVAAVLRNIKFTKDRYDSFIELQEKLHQNICRKRALVAIGTHDLDTLSGPFTYTAKRPSDIKFKPLNKTKEYTACELMNIYKTDNHLKHYLHIIENKPLYPVIYDSNGVVLSMPPIINGDHSRITVNTRNIFIECTGTDFTKAKIVLDIIVTMFSEYCENQFTVEAAEVVFPNGKSHTFPELAYRKEMVRADLINKKVGIRETPENLAKLLTRMYLKSEVIGDGNQIEIEIPPTRADIIHACDIVEDAAIAYGYNNIQMTLPKTYTIANQFPLNKLTELLRHDMAAAGFTEALTFALCSQEDIADKLGVDISATKAVHISNPKTAEFQVARTTLLPGLLKTIAANRKMPLPLKLFEISDIVIKDSNTDVGAKNYRHLCAVYYNKNPGFEIIHGLLDRIMQLLDVPPGEDKGGYVIKASEGPAFFPGRCAEIFARGQSVGKLGVLHPDVITKFELTMPCSSLEINVGPFL [FARSB] | -0.031 | 50.4 | 50.2 | 0.00374 | 2.32 | 0.692 |
| MPVAGSELPRRPLPPAAQERDAEPRPPHGELQYLGQIQHILRCGVRKDDRTGTGTLSVFGMQARYSLRDEFPLLTTKRVFWKGVLEELLWFIKGSTNAKELSSKGVKIWDANGSRDFLDSLGFSTREEGDLGPVYGFQWRHFGAEYRDMESDYSGQGVDQLQRVIDTIKTNPDDRRIIMCAWNPRDLPLMALPPCHALCQFYVVNSELSCQLYQRSGDMGLGVPFNIASYALLTYMIAHITGLKPGDFIHTLGDAHIYLNHIEPLKIQLQREPRPFPKLRILRKVEKIDDFKAEDFQIEGYNPHPTIKMEMAV [TYMS] | -0.0717 | 49.2 | 49 | -0.0779 | -0.449 | 1.58 |
| MPVDLSKWSGPLSLQEVDEQPQHPLHVTYAGAAVDELGKVLTPTQVKNRPTSISWDGLDSGKLYTLVLTDPDAPSRKDPKYREWHHFLVVNMKGNDISSGTVLSDYVGSGPPKGTGLHRYVWLVYEQDRPLKCDEPILSNRSGDHRGKFKVASFRKKYELRAPVAGTCYQAEWDDYVPKLYEQLSGK [PEBP1] | 0.21 | 56.9 | 57.3 | 0.607 | -0.593 | -3.2 |
| MPVKGGTKCIKYLLFGFNFIFWLAGIAVLAIGLWLRFDSQTKSIFEQETNNNNSSFYTGVYILIGAGALMMLVGFLGCCGAVQESQCMLGLFFGFLLVIFAIEIAAAIWGYSHKDEVIKEVQEFYKDTYNKLKTKDEPQRETLKAIHYALNCCGLAGGVEQFISDICPKKDVLETFTVKSCPDAIKEVFDNKFHIIGAVGIGIAVVMIFGMIFSMILCCAIRRNREMV [CD9] | -0.149 | 62.4 | 60.4 | -0.0106 | 2.82 | 0.357 |
